Holding throughout (assay): SPR (Biacore), bound amount, IL6R-BF648/IL6R-L = 100
The target of one assay is T1, FcγRIa (human, UniProt P12314 16-292, limits assumed).
T1 construct: also called FcgRIa; CD64

For a further assay, the target named is T2, FcγRIIb (human, UniProt P31994 43-217, limits assumed).
T2 construct: also called FcgRIIb; FcγIIB
T2 sequence: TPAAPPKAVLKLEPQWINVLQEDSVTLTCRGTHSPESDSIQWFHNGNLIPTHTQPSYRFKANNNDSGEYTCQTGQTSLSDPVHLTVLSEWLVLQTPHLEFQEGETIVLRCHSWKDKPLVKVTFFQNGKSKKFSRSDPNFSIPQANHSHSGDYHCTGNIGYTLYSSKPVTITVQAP

The target in another assay is T3, FcγRIIIa type V (human, UniProt P08637 17-208, limits assumed).
T3 construct: also called FcγRIIIaV; FcgRIIIaV

In another assay the target is T4, FcγRIIa type H (human, UniProt P12318 36-217).
T4 construct: also called FcγRIIaH; FcγRIIH
T4 sequence: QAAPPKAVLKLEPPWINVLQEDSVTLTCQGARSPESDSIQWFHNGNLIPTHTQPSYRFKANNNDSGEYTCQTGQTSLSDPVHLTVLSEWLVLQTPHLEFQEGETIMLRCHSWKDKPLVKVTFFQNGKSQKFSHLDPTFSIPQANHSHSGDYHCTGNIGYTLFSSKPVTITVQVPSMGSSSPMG

T1 sequence (P12314 16-292 limits assumed): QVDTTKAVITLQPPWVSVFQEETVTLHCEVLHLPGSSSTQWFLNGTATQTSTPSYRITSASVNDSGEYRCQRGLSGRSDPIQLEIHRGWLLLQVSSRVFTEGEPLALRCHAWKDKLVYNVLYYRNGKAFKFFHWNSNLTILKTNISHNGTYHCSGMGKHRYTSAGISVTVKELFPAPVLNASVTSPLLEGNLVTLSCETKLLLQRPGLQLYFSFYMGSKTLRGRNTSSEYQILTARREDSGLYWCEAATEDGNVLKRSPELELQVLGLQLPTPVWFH
T3 sequence (P08637 other isoform, or with tags, fused parts or gaps limits assumed): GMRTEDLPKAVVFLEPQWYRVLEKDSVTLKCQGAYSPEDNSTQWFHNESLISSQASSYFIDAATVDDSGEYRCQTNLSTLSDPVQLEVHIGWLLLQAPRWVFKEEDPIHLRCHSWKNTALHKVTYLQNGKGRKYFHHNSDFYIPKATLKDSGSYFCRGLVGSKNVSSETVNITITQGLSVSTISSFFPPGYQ

B1: IL6R-BP199/IL6R-L (antibody, human IgG1)
heavy: QVQLQESGPGLVKPSETLSLTCAVSGHSISHDHAWSWVRQPPGEGLEWIGFISYSGITNYNPSLQGRVTISRDNSKNTLYLQMNSLRAEDTAVYYCARSLARTTAMDYWGEGTLVTVSSASTKGPSVFPLAPSSKSTSGGTAALGCLVKDYFPEPVTVSWNSGALTSGVHTFPAVLQSSGLYSLSSVVTVPSSSLGTQTYICNVNHKPSNTKVDKKVEPKSCDKTHTCPPCPAPDLLGGDSVFLFPPKPKDTLMISRTPEVTCVVVDVSHEDPEVKFNWYVDGVEVHNAKTKPREEQYNSTYRVVSVLTVLHQDWLNGKEYKCKVSNDALPRPIEKTISKAKGQPREPQVYTLPPSRDELTKNQVSLTCLVKGFYPSDIAVEWESNGQPENNYKTTPPVLDSDGSFFLYSKLTVDKSRWQQGNVFSCSVMHEALHNHYTQESLSLSP
light: DIQMTQSPSSLSASVGDRVTITCRASQDISSYLNWYQQKPGKAPKLLIYYTSRLHSGVPSRFSGSGSGTDFTFTISSLQPEDIATYYCQQGNTLPYTFGQGTKVEIK
notes: IgG1; Fc variant of IL6R-B3; copies: 2 + 2
Regarding B1, the relative binding activity is 112 % of control in the assay with FcγRIa, 144 % of control with FcγRIIb, 103 % of control with FcγRIIIa type V and 116 % of control with FcγRIIa type H.

B2: IL6R-BP206/IL6R-L (antibody, human IgG1)
heavy: QVQLQESGPGLVKPSETLSLTCAVSGHSISHDHAWSWVRQPPGEGLEWIGFISYSGITNYNPSLQGRVTISRDNSKNTLYLQMNSLRAEDTAVYYCARSLARTTAMDYWGEGTLVTVSSASTKGPSVFPLAPSSKSTSGGTAALGCLVKDYFPEPVTVSWNSGALTSGVHTFPAVLQSSGLYSLSSVVTVPSSSLGTQTYICNVNHKPSNTKVDKKVEPKSCDKTHTCPPCPAPDLLGGDSVFLFPPKPKDTLMISRTPEVTCVVVDVSHEDGEVKFNWYVDGVEVHNAKTKPREEQYNSTYRVVSVLTVLHQDWLNGKEYKCKVSNKALPRPIEKTISKAKGQPREPQVYTLPPSRDELTKNQVSLTCLVKGFYPSDIAVEWESNGQPENNYKTTPPVLDSDGSFFLYSKLTVDKSRWQQGNVFSCSVMHEALHNHYTQESLSLSP
light: DIQMTQSPSSLSASVGDRVTITCRASQDISSYLNWYQQKPGKAPKLLIYYTSRLHSGVPSRFSGSGSGTDFTFTISSLQPEDIATYYCQQGNTLPYTFGQGTKVEIK
notes: as for B1
Regarding B2, the relative binding activity with FcγRIa is 101 % of control; with FcγRIIb, 168 % of control; in the assay with FcγRIIIa type V, 92 % of control; in the assay with FcγRIIa type H, 123 % of control.

B3: IL6R-BP203/IL6R-L (antibody, human IgG1)
heavy: QVQLQESGPGLVKPSETLSLTCAVSGHSISHDHAWSWVRQPPGEGLEWIGFISYSGITNYNPSLQGRVTISRDNSKNTLYLQMNSLRAEDTAVYYCARSLARTTAMDYWGEGTLVTVSSASTKGPSVFPLAPSSKSTSGGTAALGCLVKDYFPEPVTVSWNSGALTSGVHTFPAVLQSSGLYSLSSVVTVPSSSLGTQTYICNVNHKPSNTKVDKKVEPKSCDKTHTCPPCPAPELLGDDSVFLFPPKPKDTLMISRTPEVTCVVVDVSHEDGEVKFNWYVDGVEVHNAKTKPREEQYNSTYRVVSVLTVLHQDWLNGKEYKCKVSNKALPRPIEKTISKAKGQPREPQVYTLPPSRDELTKNQVSLTCLVKGFYPSDIAVEWESNGQPENNYKTTPPVLDSDGSFFLYSKLTVDKSRWQQGNVFSCSVMHEALHNHYTQESLSLSP
light: DIQMTQSPSSLSASVGDRVTITCRASQDISSYLNWYQQKPGKAPKLLIYYTSRLHSGVPSRFSGSGSGTDFTFTISSLQPEDIATYYCQQGNTLPYTFGQGTKVEIK
notes: as for B1
With B3, the relative binding activity in the assay with FcγRIa was 35 % of control; with FcγRIIb it was 185 % of control; in the assay with FcγRIIIa type V, 88 % of control; with FcγRIIa type H, 255 % of control.

B4: IL6R-BP209/IL6R-L (antibody, human IgG1)
heavy: QVQLQESGPGLVKPSETLSLTCAVSGHSISHDHAWSWVRQPPGEGLEWIGFISYSGITNYNPSLQGRVTISRDNSKNTLYLQMNSLRAEDTAVYYCARSLARTTAMDYWGEGTLVTVSSASTKGPSVFPLAPSSKSTSGGTAALGCLVKDYFPEPVTVSWNSGALTSGVHTFPAVLQSSGLYSLSSVVTVPSSSLGTQTYICNVNHKPSNTKVDKKVEPKSCDKTHTCPPCPAPELLGDDSVFLFPPKPKDTLMISRTPEVTCVVVDVSDEDGEVKFNWYVDGVEVHNAKTKPREEQYNSTYRVVSVLTVLHQDWLNGKEYKCKVSNAALPRPIEKTISKAKGQPREPQVYTLPPSRDELTKNQVSLTCLVKGFYPSDIAVEWESNGQPENNYKTTPPVLDSDGSFFLYSKLTVDKSRWQQGNVFSCSVMHEALHNHYTQESLSLSP
light: DIQMTQSPSSLSASVGDRVTITCRASQDISSYLNWYQQKPGKAPKLLIYYTSRLHSGVPSRFSGSGSGTDFTFTISSLQPEDIATYYCQQGNTLPYTFGQGTKVEIK
notes: as for B1
Take B4: the relative binding activity with FcγRIa is 68 % of control; in the assay with FcγRIIb it was 186 % of control; with FcγRIIIa type V it was 153 % of control; in the assay with FcγRIIa type H, 267 % of control.

B5: IL6R-BP207/IL6R-L (antibody, human IgG1)
heavy: QVQLQESGPGLVKPSETLSLTCAVSGHSISHDHAWSWVRQPPGEGLEWIGFISYSGITNYNPSLQGRVTISRDNSKNTLYLQMNSLRAEDTAVYYCARSLARTTAMDYWGEGTLVTVSSASTKGPSVFPLAPSSKSTSGGTAALGCLVKDYFPEPVTVSWNSGALTSGVHTFPAVLQSSGLYSLSSVVTVPSSSLGTQTYICNVNHKPSNTKVDKKVEPKSCDKTHTCPPCPAPDLLGGDSVFLFPPKPKDTLMISRTPEVTCVVVDVSHEDPEVKFNWYVDGVEVHNAKTKPREEQYNSTYRVVSVLTVLHQDWLNGKEYKCKVSNKALPRPIEKTISKAKGQPREPQVYTLPPSRDELTKNQVSLTCLVKGFYPSDIAVEWESNGQPENNYKTTPPVLDSDGSFFLYSKLTVDKSRWQQGNVFSCSVMHEALHNHYTQESLSLSP
light: DIQMTQSPSSLSASVGDRVTITCRASQDISSYLNWYQQKPGKAPKLLIYYTSRLHSGVPSRFSGSGSGTDFTFTISSLQPEDIATYYCQQGNTLPYTFGQGTKVEIK
notes: as for B1
On to B5, for which the relative binding activity was 74 % of control with FcγRIa, 124 % of control with FcγRIIb, 97 % of control with FcγRIIIa type V and 103 % of control with FcγRIIa type H.

B6: IL6R-BP208/IL6R-L (antibody, human IgG1)
heavy: QVQLQESGPGLVKPSETLSLTCAVSGHSISHDHAWSWVRQPPGEGLEWIGFISYSGITNYNPSLQGRVTISRDNSKNTLYLQMNSLRAEDTAVYYCARSLARTTAMDYWGEGTLVTVSSASTKGPSVFPLAPSSKSTSGGTAALGCLVKDYFPEPVTVSWNSGALTSGVHTFPAVLQSSGLYSLSSVVTVPSSSLGTQTYICNVNHKPSNTKVDKKVEPKSCDKTHTCPPCPAPDLLGDDSVFLFPPKPKDTLMISRTPEVTCVVVDVSDEDGEVKFNWYVDGVEVHNAKTKPREEQYNSTYRVVSVLTVLHQDWLNGKEYKCKVSNKALPRPIEKTISKAKGQPREPQVYTLPPSRDELTKNQVSLTCLVKGFYPSDIAVEWESNGQPENNYKTTPPVLDSDGSFFLYSKLTVDKSRWQQGNVFSCSVMHEALHNHYTQESLSLSP
light: DIQMTQSPSSLSASVGDRVTITCRASQDISSYLNWYQQKPGKAPKLLIYYTSRLHSGVPSRFSGSGSGTDFTFTISSLQPEDIATYYCQQGNTLPYTFGQGTKVEIK
notes: as for B1
Turning to B6, the relative binding activity with FcγRIa was 81 % of control; in the assay with FcγRIIb, 188 % of control; in the assay with FcγRIIIa type V it was 118 % of control; in the assay with FcγRIIa type H, 310 % of control.
